Patent US20260242485A1 (LEPU BIOPHARMA, published 2026)

B1: 45H6E8-hIgG1 LALAPG (antibody)
heavy: EVQLQQSGAELVRSGASVKLSCTASGFNIKDYYMQWVKQRPEQGLEWIGWIDPENGDTEYAPKFQGKATMTADTSSNTAYLQLSSLTSEDTAVYYCTTGGNYVDWGQGTTLTVSSASTKGPSVFPLAPSSKSTSGGTAALGCLVKDYFPEPVTVSWNSGALTSGVHTFPAVLQSSGLYSLSSVVTVPSSSLGTQTYICNVNHKPSNTKVDKKVEPKSCDKTHTCPPCPAPEAAGGPSVFLFPPKPKDTLMISRTPEVTCVVVDVSHEDPEVKFNWYVDGVEVHNAKTKPREEQYNSTYRVVSVLTVLHQDWLNGKEYKCKVSNKALGAPIEKTISKAKGQPREPQVYTLPPSREEMTKNQVSLTCLVKGFYPSDIAVEWESNGQPENNYKTTPPVLDSDGSFFLYSKLTVDKSRWQQGNVFSCSVMHEALHNHYTQKSLSLSPGK
light: DIVMTQSQKFMSTSVGDRVSITCKASQNVGTAVAWYQQKPGQSPKLLIYSASNRYTGVPDRFTGSGSGTDFTLTISNMQSEDLADYFCQQYSSYPLLTFGAGTNLELKRTVAAPSVFIFPPSDEQLKSGTASVVCLLNNFYPREAKVQWKVDNALQSGNSQESVTEQDSKDSTYSLSSTLTLSKADYEKHKVYACEVTHQGLSSPVTKSFNRGEC
notes: also called 45H6E8 chimeric antibody
B2: P2C47-hIgG1 LALAPG (antibody)
heavy: QVQLVQSGAEVKKPGESLKVSCKASGYTFTSYYMHWVRQAPGQGLEWMGAIEPMYGSTSYAQKFQGRVTMTRDTSTSTVYMELSSLRSEDTAVYYCARGSAYYYDFADYWGQGTLVTVSSASTKGPSVFPLAPSSKSTSGGTAALGCLVKDYFPEPVTVSWNSGALTSGVHTFPAVLQSSGLYSLSSVVTVPSSSLGTQTYICNVNHKPSNTKVDKKVEPKSCDKTHTCPPCPAPEAAGGPSVFLFPPKPKDTLMISRTPEVTCVVVDVSHEDPEVKFNWYVDGVEVHNAKTKPREEQYNSTYRVVSVLTVLHQDWLNGKEYKCKVSNKALGAPIEKTISKAKGQPREPQVYTLPPSREEMTKNQVSLTCLVKGFYPSDIAVEWESNGQPENNYKTTPPVLDSDGSFFLYSKLTVDKSRWQQGNVFSCSVMHEALHNHYTQKSLSLSPGK
light: SYVLTQPSSVSVAPGQTATISCGGHNIGSKNVHWYQQRPGQSPVLVIYQDNKRPSGIPERFSGSNSGNTATLTISGTQAMDEADYYCQVWDNYSVLFGGGTKLTVLGQPKANPTVTLFPPSSEELQANKATLVCLISDFYPGAVTVAWKADGSPVKAGVETTKPSKQSNNKYAASSYLSLTPEQWKSHRSYSCQVTHEGSTVEKTVAPTECS
notes: also called benchmark antibody P2C47

Assays:
[1] = target: T1, human CD32B expressed on CHO-K1 cells (human, UniProt P31994 43-310); assay: flow cytometry, CHO-K1-hCD32B cells, geometric mean
T1 construct: whole, on cells; also called hCD32B
T1 sequence (looked up): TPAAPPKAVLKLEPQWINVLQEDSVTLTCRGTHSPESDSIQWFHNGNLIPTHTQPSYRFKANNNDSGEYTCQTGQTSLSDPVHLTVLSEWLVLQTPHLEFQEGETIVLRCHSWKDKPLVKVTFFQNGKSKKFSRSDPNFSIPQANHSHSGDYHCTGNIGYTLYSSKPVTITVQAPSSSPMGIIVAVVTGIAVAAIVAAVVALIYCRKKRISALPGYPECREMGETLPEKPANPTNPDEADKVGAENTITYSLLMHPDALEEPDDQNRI
Method: (§1) In order to evaluate the binding activity of the chimeric mAbs to human CD16A expressed on cells, cell-based binding assay was employed as followed. […] The antibody dilutions were incubated with 1×10⁵ indicated cells in the 96-well microplate for one hour at 4° C. The antibodies binding to the antigen on the cell surface were detected with PE fluorophore-conjugated anti-human IgG Fc secondary antibodies (ThermoFisher scientific, Cat. No. 12-4998-82) at a dilution rate of 1:1000. Cells were analyzed by flow cytometer LSRFortessa Cell Analyzer (BD Biosciences). Data were analyzed with Flowjo 10.0 software. The graph and statistics analysis were generated with four-parameter nonlinear regression curve fit in Graphpad Prism 9 software.
(§2) To exclude the non-specific binding of the CD16A chimeric antibody to human CD16B and CD32B expressed on cells, cell-based binding assay was performed as described above. Firstly, CHO-K1 cells were stably transferred with one human CD16B spliced isoform hCD16B-NA1 and human CD32B. Then, the cells were incubated with the indicated concentrations of CD16A chimeric antibodies.

[2] = target: T2, hCD16A-158F-his protein (human, UniProt P08637 17-208); assay: ELISA, plate-coated his-tagged antigen 2 ug/mL
T2 construct: Bought protein
Method: (§3) In order to determine the binding ability of the chimeric Abs to human CD16A protein, ELISA-based binding assay was performed as followed. […] The mixture was incubated for 1 hour at room temperature (RT). The primary antibody was recognized by a detective antibody against human IgG Fc which was conjugated with horseradish peroxidase (HRP) (Jackson Immuno, Cat. No. 109-035-008). Tetramethylbenzidine (TMB), a substrate of HRP, was added to the wells to visualize the binding signal. After sufficient color development, stop solution was added to the wells. The absorbance of the signal was detected at 450 nm with Envision multilabel plate readers (PerkinElemer). The graph and statistics analysis were generated with four-parameter nonlinear regression curve fit in Graphpad Prism 9 software.
(§4) In order to determine the cross reactivity of the chimeric Abs to cynomolgus CD16, ELISA binding assay was performed as described above. Recombinant cyno CD16 ECD his tag protein (cynoCD16-his, Acro Bio, Cat. No. FC6-C52H9) was used as the coating antigen at 2 μg/mL.

[3] = target: T3, Recombinant cyno CD16 ECD his tag protein (cynomolgus, UniProt Q8SPW2 17-208); assay: ELISA, plate-coated his-tagged antigen 2 ug/mL
T3 construct: extracellular domain; Bought protein; also called cynoCD16-his; cynomolgus CD16-his
Method: as §3, §4

[4] = target: T4, hCD16A-158V-his protein (human, UniProt P08637 17-208); assay: ELISA, plate-coated his-tagged antigen 2 ug/mL
T4 construct: extracellular domain; Bought protein; also called human CD16A-158V-his; Human CD16A-158V (protein)
Method: as §3, §4

[5] = target: T5, cynomolgus CD16 expressed on CHO-K1 cells (cynomolgus, UniProt Q8SPW2 17-254); assay: flow cytometry, CHO-K1-cyno CD16 cells, Alexa Fluor 647 anti-human IgG Fc, geometric mean
T5 construct: whole, on cells; also called cyno CD16; CHO-K1-cynoCD16

[6] = target: T6, human GPC3 on HepG2 cells (human, UniProt P51654 25-554); assay: flow cytometry, HepG2 cells (GPC3 positive), geometric mean
T6 construct: whole, on cells; also called GPC3-positive HepG2 cells

[7] = target: T2, hCD16A-158F-his protein; assay: SPR (Biacore 8K), antibody captured on Protein A chip, antigen at 50 nM
Method: (§5) The binding affinity of the chimeric antibodies to human CD16A was determined with Biacore™. Briefly, the antibodies were captured with a Protein A chip. […] The antigen was allowed to dissociate for 500 s. The experiment was carried out on a Biacore™ 8K. Data analysis was carried out using Biacore™ 8K evaluation software.

[8] = target: T4, hCD16A-158V-his protein; assay: as above
Method: as §5

[9] = target: T7, human CD16A-158F expressed on CHO-K1 cells (human, UniProt P08637 17-254); assay: flow cytometry, CHO-K1-hCD16A-158F cells, Alexa Fluor 647 anti-human IgG Fc, geometric mean
T7 construct: whole, on cells

[10] = target: T8, human CD16A-158V expressed on CHO-K1 cells (human, UniProt P08637 17-254); assay: flow cytometry, CHO-K1-hCD16A-158V cells, Alexa Fluor 647 anti-human IgG Fc, geometric mean
T8 construct: whole, on cells; also called hCD16A-158V; CHO-K1-hCD16A-158V

[11] = target: T9, human CD16B-NA1 expressed on CHO-K1 cells (human, UniProt O75015 17-200); assay: flow cytometry, CHO-K1-hCD16B-NA1 cells, geometric mean
T9 construct: whole, on cells; also called hCD16B-NA1; CHO-K1-hCD16B-NA1
Method: as §1, §2

T4 sequence (P08637 17-208 F176V): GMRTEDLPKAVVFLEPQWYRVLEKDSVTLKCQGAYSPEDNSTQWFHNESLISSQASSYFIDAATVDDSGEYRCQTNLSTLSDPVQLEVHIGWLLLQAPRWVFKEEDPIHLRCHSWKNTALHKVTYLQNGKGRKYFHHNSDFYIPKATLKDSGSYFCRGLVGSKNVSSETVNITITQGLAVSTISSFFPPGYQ
T2 sequence (P08637 17-208 limits assumed): as the sequence (P08637 17-208 F176V) above, with V160F counted along it
T8 sequence (P08637 17-254 F176V): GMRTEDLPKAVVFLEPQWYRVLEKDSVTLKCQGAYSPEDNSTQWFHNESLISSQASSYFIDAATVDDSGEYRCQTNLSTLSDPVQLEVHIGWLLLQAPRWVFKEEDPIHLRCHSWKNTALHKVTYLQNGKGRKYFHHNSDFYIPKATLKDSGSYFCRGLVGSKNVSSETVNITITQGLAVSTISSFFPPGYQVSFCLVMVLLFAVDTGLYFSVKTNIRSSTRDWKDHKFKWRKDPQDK
T9 sequence (O75015 other isoform, or with tags, fused parts or gaps): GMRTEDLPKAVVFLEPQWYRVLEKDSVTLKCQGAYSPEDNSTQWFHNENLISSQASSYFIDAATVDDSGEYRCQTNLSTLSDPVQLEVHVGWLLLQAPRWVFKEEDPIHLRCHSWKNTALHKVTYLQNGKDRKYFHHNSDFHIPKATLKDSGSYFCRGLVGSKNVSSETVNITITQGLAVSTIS
T6 sequence (P51654 25-554 limits assumed): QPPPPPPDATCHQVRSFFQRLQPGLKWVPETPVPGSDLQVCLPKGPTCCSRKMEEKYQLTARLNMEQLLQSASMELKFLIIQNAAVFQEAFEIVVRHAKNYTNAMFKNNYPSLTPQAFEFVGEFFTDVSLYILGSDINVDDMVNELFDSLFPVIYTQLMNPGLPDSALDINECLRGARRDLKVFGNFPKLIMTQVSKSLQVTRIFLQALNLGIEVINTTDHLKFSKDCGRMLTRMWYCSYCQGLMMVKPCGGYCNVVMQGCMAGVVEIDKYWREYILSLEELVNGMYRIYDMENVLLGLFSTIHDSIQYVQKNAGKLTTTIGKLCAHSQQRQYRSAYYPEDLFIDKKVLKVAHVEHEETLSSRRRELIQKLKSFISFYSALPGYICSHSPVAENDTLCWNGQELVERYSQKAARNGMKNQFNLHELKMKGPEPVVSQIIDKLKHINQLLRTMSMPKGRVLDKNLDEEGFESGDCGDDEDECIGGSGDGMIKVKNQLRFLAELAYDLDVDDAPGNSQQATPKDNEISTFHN
T7 sequence (P08637 17-254): as the sequence (P08637 17-254 F176V) above, with V160F counted along it
T5 sequence (Q8SPW2 17-254): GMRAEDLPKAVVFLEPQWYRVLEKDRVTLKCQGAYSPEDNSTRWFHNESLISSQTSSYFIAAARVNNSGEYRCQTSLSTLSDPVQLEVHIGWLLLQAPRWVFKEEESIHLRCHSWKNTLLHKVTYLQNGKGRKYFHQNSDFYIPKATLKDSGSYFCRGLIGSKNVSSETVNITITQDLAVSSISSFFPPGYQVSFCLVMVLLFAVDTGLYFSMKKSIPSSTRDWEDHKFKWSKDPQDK
T3 sequence (Q8SPW2 17-208): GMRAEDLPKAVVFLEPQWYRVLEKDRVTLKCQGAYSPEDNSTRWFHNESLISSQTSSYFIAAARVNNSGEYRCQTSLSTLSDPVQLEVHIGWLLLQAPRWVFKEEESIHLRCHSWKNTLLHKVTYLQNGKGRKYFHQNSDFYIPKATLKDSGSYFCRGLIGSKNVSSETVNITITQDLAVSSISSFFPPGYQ

binding result [1]	EC50 [2]	EC50 [3]	EC50 [4]	EC50 (read off the curve) [5]	binding result [6]	Kd [7]	koff [7]	kon [7]	Kd [8]	koff [8]	kon [8]	EC50 (read off the curve) [9]	EC50 (read off the curve) [10]	binding result [11]	Binder
no binding (tested: 100 nM)	330 pM	680 pM	100 pM	~1000 pM	no binding (tested: 100 nM)	1170 pM	0.00455 s⁻¹	3.9e+06 M⁻¹ s⁻¹	1860 pM	0.00655 s⁻¹	3.52e+06 M⁻¹ s⁻¹	~400 pM	~400 pM	no binding (tested: 100 nM)	B1
no binding (tested: 100 nM)	320 pM	730 pM	120 pM	~1000 pM	no binding (tested: 100 nM)	2230 pM	0.002 s⁻¹	897000 M⁻¹ s⁻¹	1680 pM	0.00135 s⁻¹	804000 M⁻¹ s⁻¹	~400 pM	~400 pM	no binding (tested: 100 nM)	B2
